In the supplement of paper PMC10126150:
± gives the standard deviation of the averaged measurements.

System: ATP
Test: switch fluorescence ratio, 500 uM ATP over buffer (Cy3 cluster intensity, sum of 5 cycles each) (fold (ratio)); higher = stronger signal-on switching upon ATP binding; sequences stand for … in TCGTCGGCAGCGTCAGATGTGTATAAGAGACAGTTTTTTTTTTTTTTTTTTTTTTTTT…TC
Conditions: aptamer strand: ATP DNA aptamer (quencher-CACCTGGGGGAGTATTGCGGAGGAAGG + anchor), 100 nM annealed; ATP concentration: 500 uM
Procedure, shortened: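 Clusters carrying Cy3-labelled switching strands on a modified Illumina MiSeq flow-cell were annealed to 100 nM quencher-labelled ATP aptamer and imaged in selection buffer. They were imaged again after 15 min with 500 uM ATP at 22 °C, over five buffer/ATP cycles with NaOH stripping and re-annealing in between. For each cluster, the fluorescence ratio is the summed Cy3 intensity of the target cycles divided by that of the buffer cycles, averaged per switch-domain sequence. Clusters outside 100-1000 RFU were left out.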
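Also: ATP exposure 15 min at 22 °C before imaging.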

## TAGGTTTTTC
  switch fluorescence ratio: 1.02 ± 0.078

## TAGTAAATAT
  switch fluorescence ratio: 1.006 ± 0.0041

## TAGTAAGAGG
  switch fluorescence ratio: 1 ± 0.013

## TAGTAGAAAG
  switch fluorescence ratio: 1.002 ± 0.0032

## TAGTAGACGA
  switch fluorescence ratio: 0.982 ± 0.034

## TAGTAGCTTT
  switch fluorescence ratio: 1.2 ± 0.31

## TAGTAGGAGG
  switch fluorescence ratio: 0.9721 ± 0.0061

## TAGTAGGCGC
  switch fluorescence ratio: 0.968 ± 0.035

## TAGTAGTGGG
  switch fluorescence ratio: 1.01 ± 0.022

## TAGTAGTTGT
  switch fluorescence ratio: 1 ± 0.013

## TAGTATAGGC
  switch fluorescence ratio: 1.14 ± 0.17

## TAGTATAGTT
  switch fluorescence ratio: 0.98 ± 0.016

## TAGTATTTAG
  switch fluorescence ratio: 1.024 ± 0.00096

## TAGTCATTAC
  switch fluorescence ratio: 1.12 ± 0.12

## TAGTCCGGGC
  switch fluorescence ratio: 1 ± 0.076

## TAGTCTATTT
  switch fluorescence ratio: 0.977 ± 0.02

## TAGTCTGTGG
  switch fluorescence ratio: 0.993 ± 0.033

## TAGTGAAAGT
  switch fluorescence ratio: 1.007 ± 0.0071

## TAGTGAGAGC
  switch fluorescence ratio: 1 ± 0.058

## TAGTGAGGCT
  switch fluorescence ratio: 0.996 ± 0.01

## TAGTGAGGGG
  switch fluorescence ratio: 0.979 ± 0.031

## TAGTGATTAA
  switch fluorescence ratio: 1.02 ± 0.044

## TAGTGATTGG
  switch fluorescence ratio: 1 ± 0.052

## TAGTGCCAGA
  switch fluorescence ratio: 1.01 ± 0.012

## TAGTGCGATT
  switch fluorescence ratio: 1.02 ± 0.015

## TAGTGCTTTT
  switch fluorescence ratio: 1.01 ± 0.025

## TAGTGGTTTT
  switch fluorescence ratio: 0.975 ± 0.02

## TAGTGTGGGA
  switch fluorescence ratio: 1 ± 0.043

## TAGTGTGTAT
  switch fluorescence ratio: 0.9516 ± 0.0088

## TAGTGTGTGA
  switch fluorescence ratio: 1.02 ± 0.014

## TAGTTACACA
  switch fluorescence ratio: 1.04 ± 0.035

## TAGTTAGAAG
  switch fluorescence ratio: 1.08 ± 0.13

## TAGTTCACGG
  switch fluorescence ratio: 0.9991 ± 0.0073

## TAGTTCGACT
  switch fluorescence ratio: 1.004 ± 0.0091

## TAGTTCGTAT
  switch fluorescence ratio: 0.986 ± 0.0099

## TAGTTCTGAG
  switch fluorescence ratio: 0.998 ± 0.006

## TAGTTGAGAA
  switch fluorescence ratio: 0.9851 ± 0.0075

## TAGTTGCTTG
  switch fluorescence ratio: 1.03 ± 0.054

## TAGTTGGCAG
  switch fluorescence ratio: 0.9773 ± 0.0054

## TAGTTGGCCC
  switch fluorescence ratio: 1.006 ± 0.0034

## TAGTTGGGAG
  switch fluorescence ratio: 0.973 ± 0.012

## TAGTTGTAAG
  switch fluorescence ratio: 0.994 ± 0.02

## TAGTTTATGT
  switch fluorescence ratio: 1.012 ± 0.0056

## TAGTTTTAGA
  switch fluorescence ratio: 0.98478 ± 9.2e-05

## TAGTTTTTCA
  switch fluorescence ratio: 1.01 ± 0.039

## TAGTTTTTGG
  switch fluorescence ratio: 0.994 ± 0.032

## TATAAAAGGC
  switch fluorescence ratio: 0.978 ± 0.045

## TATAAACTGT
  switch fluorescence ratio: 0.993 ± 0.015

## TATAAAGAGA
  switch fluorescence ratio: 0.9978 ± 0.0057

## TATAAAGCGG
  switch fluorescence ratio: 1.03 ± 0.048

## TATAAAGTTG
  switch fluorescence ratio: 1.01 ± 0.062

## TATAACGGGA
  switch fluorescence ratio: 1.05 ± 0.027

## TATAAGAGTT
  switch fluorescence ratio: 1.02 ± 0.035

## TATAAGTTTT
  switch fluorescence ratio: 0.9823 ± 0.0096

## TATAATACTT
  switch fluorescence ratio: 1.026 ± 0.0038

## TATAATGTGG
  switch fluorescence ratio: 0.967 ± 0.015

## TATAATGTTT
  switch fluorescence ratio: 1.02 ± 0.048

## TATAATTGGT
  switch fluorescence ratio: 0.9616 ± 0.007

## TATACCATGG
  switch fluorescence ratio: 0.971 ± 0.046

## TATACCATTA
  switch fluorescence ratio: 0.997 ± 0.051

## TATACCCTTT
  switch fluorescence ratio: 1 ± 0.052

## TATACGACTT
  switch fluorescence ratio: 1.03 ± 0.029

## TATACGCTTG
  switch fluorescence ratio: 1.001 ± 0.0079

## TATACGGGGG
  switch fluorescence ratio: 0.992 ± 0.049

## TATACGTTTC
  switch fluorescence ratio: 1.04 ± 0.028

## TATACTGTAA
  switch fluorescence ratio: 1.14 ± 0.031

## TATAGAGGG
  switch fluorescence ratio: 0.969 ± 0.011

## TATAGCCGGG
  switch fluorescence ratio: 1 ± 0.069

## TATAGGACTA
  switch fluorescence ratio: 1.01 ± 0.014

## TATAGGCTTC
  switch fluorescence ratio: 1 ± 0.023

## TATAGGGTCA
  switch fluorescence ratio: 0.979 ± 0.031

## TATAGGTCGG
  switch fluorescence ratio: 0.9695 ± 0.0057

## TATAGGTTTG
  switch fluorescence ratio: 1.01 ± 0.042

## TATAGTGATG
  switch fluorescence ratio: 1.01 ± 0.019

## TATAGTTTGC
  switch fluorescence ratio: 0.969 ± 0.026

## TATATACGTT
  switch fluorescence ratio: 1.04 ± 0.026

## TATATAGGAA
  switch fluorescence ratio: 1.018 ± 0.0064

## TATATATAAA
  switch fluorescence ratio: 1.09 ± 0.087

## TATATCATTG
  switch fluorescence ratio: 0.965 ± 0.011

## TATATGAATA
  switch fluorescence ratio: 1.006 ± 0.0023

## TATATGAGAG
  switch fluorescence ratio: 0.973 ± 0.017

## TATATGGAGG
  switch fluorescence ratio: 0.956 ± 0.032

## TATATGTAGA
  switch fluorescence ratio: 1.03 ± 0.011

## TATATGTGTG
  switch fluorescence ratio: 0.9661 ± 0.0073

## TATATTATTA
  switch fluorescence ratio: 0.985 ± 0.031

## TATATTGACC
  switch fluorescence ratio: 1.04 ± 0.03

## TATATTGGAT
  switch fluorescence ratio: 0.985 ± 0.025

## TATATTGGGC
  switch fluorescence ratio: 0.968 ± 0.049

## TATATTTGGG
  switch fluorescence ratio: 0.998 ± 0.034

## TATATTTGGT
  switch fluorescence ratio: 0.996 ± 0.039

## TATATTTTTA
  switch fluorescence ratio: 0.9819 ± 0.0079

## TATCAAAGGC
  switch fluorescence ratio: 1.014 ± 0.0082

## TATCACCATA
  switch fluorescence ratio: 1.04 ± 0.079

## TATCACCGGC
  switch fluorescence ratio: 1.09 ± 0.031

## TATCACGGTA
  switch fluorescence ratio: 1.176 ± 0.011

## TATCAGAGGG
  switch fluorescence ratio: 1.02 ± 0.023

## TATCAGGGCT
  switch fluorescence ratio: 0.999 ± 0.057

## TATCAGGGGA
  switch fluorescence ratio: 1 ± 0.075

## TATCAGGGGT
  switch fluorescence ratio: 1.08 ± 0.073

## TATCATAAGT
  switch fluorescence ratio: 1.016 ± 0.0077

## TATCATCTTT
  switch fluorescence ratio: 1.01 ± 0.054

## TATCATTAGA
  switch fluorescence ratio: 1.01 ± 0.014

## TATCATTCGG
  switch fluorescence ratio: 1.01 ± 0.043

## TATCCTATTA
  switch fluorescence ratio: 1.003 ± 0.0036

## TATCCTGGAC
  switch fluorescence ratio: 1.05 ± 0.045

## TATCGAAGTT
  switch fluorescence ratio: 1.013 ± 0.0018

## TATCGACAAT
  switch fluorescence ratio: 1.37 ± 0.47

## TATCGAGTGG
  switch fluorescence ratio: 0.979 ± 0.058

## TATCGCGGTG
  switch fluorescence ratio: 1.005 ± 0.005

## TATCGCTCAT
  switch fluorescence ratio: 0.9765 ± 0.0073

## TATCGGATTC
  switch fluorescence ratio: 1.02 ± 0.02

## TATCGGGTGT
  switch fluorescence ratio: 1.11 ± 0.092

## TATCGGTTCG
  switch fluorescence ratio: 0.9992 ± 0.0076

## TATCGTAGTG
  switch fluorescence ratio: 0.98 ± 0.038

## TATCGTCGGA
  switch fluorescence ratio: 0.9823 ± 0.0035

## TATCGTCTGG
  switch fluorescence ratio: 0.981 ± 0.015

## TATCGTTCTC
  switch fluorescence ratio: 0.989 ± 0.011

## TATCGTTGGA
  switch fluorescence ratio: 1.03 ± 0.018

## TATCTCTTTT
  switch fluorescence ratio: 1.01 ± 0.041

## TATCTGGGCC
  switch fluorescence ratio: 1.03 ± 0.011

## TATCTGTGCT
  switch fluorescence ratio: 0.994 ± 0.019

## TATCTTACCA
  switch fluorescence ratio: 0.988 ± 0.032

## TATCTTGGGC
  switch fluorescence ratio: 0.996 ± 0.083

## TATGAAAGGA
  switch fluorescence ratio: 1.011 ± 0.0047

## TATGAAGAGT
  switch fluorescence ratio: 1.01 ± 0.017

## TATGAATTGT
  switch fluorescence ratio: 1.014 ± 0.01

## TATGACAGGA
  switch fluorescence ratio: 0.995 ± 0.011

## TATGAGAGAG
  switch fluorescence ratio: 1.03 ± 0.02

## TATGAGATCG
  switch fluorescence ratio: 1.03 ± 0.069

## TATGAGGATG
  switch fluorescence ratio: 1.01 ± 0.031

## TATGAGGGGA
  switch fluorescence ratio: 1.02 ± 0.032

## TATGAGTGAC
  switch fluorescence ratio: 1.02 ± 0.016

## TATGAGTGGG
  switch fluorescence ratio: 0.976 ± 0.018

## TATGATATGC
  switch fluorescence ratio: 1.032 ± 0.0011

## TATGATGCTC
  switch fluorescence ratio: 0.998 ± 0.043

## TATGATTGGC
  switch fluorescence ratio: 0.972 ± 0.061

## TATGCAACTT
  switch fluorescence ratio: 0.993 ± 0.015

## TATGCAGTA
  switch fluorescence ratio: 1.3 ± 0.038

## TATGCCCAGC
  switch fluorescence ratio: 1 ± 0.029

## TATGCCTTTT
  switch fluorescence ratio: 1.008 ± 0.0042

## TATGCGGGCG
  switch fluorescence ratio: 0.939 ± 0.072

## TATGCTAACT
  switch fluorescence ratio: 1 ± 0.051

## TATGCTTGA
  switch fluorescence ratio: 0.986 ± 0.036

## TATGCTTGGT
  switch fluorescence ratio: 1.015 ± 0.003

## TATGGAAGAG
  switch fluorescence ratio: 0.977 ± 0.054

## TATGGAAGCC
  switch fluorescence ratio: 0.982 ± 0.034

## TATGGAATGC
  switch fluorescence ratio: 1.35 ± 0.076

## TATGGACTAG
  switch fluorescence ratio: 1.01 ± 0.025

## TATGGAGAAC
  switch fluorescence ratio: 1.01 ± 0.035

## TATGGAGGGG
  switch fluorescence ratio: 0.991 ± 0.032

## TATGGCAACC
  switch fluorescence ratio: 1.03 ± 0.061

## TATGGCAAGG
  switch fluorescence ratio: 1.03 ± 0.051

## TATGGCCAGC
  switch fluorescence ratio: 0.994 ± 0.047

## TATGGCGGGG
  switch fluorescence ratio: 1.02 ± 0.03

## TATGGGGGGG
  switch fluorescence ratio: 0.994 ± 0.038

## TATGGGGGTT
  switch fluorescence ratio: 0.987 ± 0.022

## TATGGGTCTC
  switch fluorescence ratio: 0.973 ± 0.049
